Laboratory results published in paper PMC4462998.

Biological target: FtsQ (Escherichia coli), P06136
Test: not stated; unpublished results (Luirink and den Blaauwen); method not given
Details: remark: other sources report otherwise

FtsQ (Escherichia coli), P06136, sequence (P06136 whole entry): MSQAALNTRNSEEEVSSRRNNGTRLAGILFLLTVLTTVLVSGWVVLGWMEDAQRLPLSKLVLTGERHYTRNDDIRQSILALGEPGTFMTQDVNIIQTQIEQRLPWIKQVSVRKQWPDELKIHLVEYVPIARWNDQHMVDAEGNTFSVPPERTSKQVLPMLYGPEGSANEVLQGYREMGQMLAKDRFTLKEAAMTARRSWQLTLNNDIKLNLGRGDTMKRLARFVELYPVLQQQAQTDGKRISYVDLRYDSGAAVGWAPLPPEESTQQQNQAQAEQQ

- stoichiometry N: 1
B1: FtsL, P0AEN4 1-121 (natural protein)
chain: MISRVTEALSKVKGSMGSHERHALPGVIGDDLLRFGKLPLCLFICIILTAVTVVTTAHHTRLLTAQREQLVLERDALDIEWRNLILEENALGDHSRVERIATEKLQMQHVDPSQENIVVQK
